This is an account of results in paper PMC3093405, “A Motif Unique to the Human Dead-Box Protein DDX3 Is Important for Nucleic Acid Binding, ATP Hydrolysis, RNA/DNA Unwinding and HIV-1 Replication” (PLoS ONE, 2011).

Holding throughout (format): biochemical
The test system of series [1] is 18/36mer ds RNA oligonucleotide. Kind of series: RNA helicase assay. The settings on record: data not shown. The source says: (§1) The helicase activity of DDX3wt and mutant forms was monitored by measuring the conversion of a double stranded (ds) DNA or RNA (labelled at the 5′-end of one strand with a 6-FAM fluorescent group) into single stranded (ss) nucleic acid. For the RNA helicase assay, a 18/36mer ds RNA oligonucleotide with both 3′ and 5′-protruding ss ends was used. For the DNA helicase assay, three different dsDNA substrates were used, all of them composed of the same 18mer oligonucleotide 5′-FAM labelled and three different 38 mer oligonucleotides with the sequence complementary to the 18 mer at different positions. Annealing of the 18 mer to each of the 38 mer generated the different DNA substrates shown in Fig. 5 A. A final concentration of 20 nM RNA or DNA substrate was used in the experiments, unless otherwise stated. The amounts of the different DDX3 proteins are indicated in the respective Figures.
Reactions were performed in 50 mM TrisHCl pH 7.5, 1 mM DTT, 0.2 mg/ml BSA, 5% glycerol and 1 mM ATP, 10 mM MgCl2 at 37°C degrees for 10′ and stopped by adding EDTA 50 mM pH 8. Products were separated on a native 7% PAGE […] at 5 W in TBE buffer with 0.1% SDS at 4°C for 2 hours for RNA substrates, 4 hours for DNA substrates. Substrates and products were quantified by laser scanning densitometry (Thyphoon-TRIO, GE Healthcare). […]

Series [2] concerns partially dsDNA substrates (18/38-mer). Kind of series: DNA helicase assay. The settings on record: for DNA helicase activity: data not shown.
Description: as §1
Reactions were performed in 50 mM TrisHCl pH 7.5, 1 mM DTT, 0.2 mg/ml BSA, 5% glycerol and 1 mM ATP, 10 mM MgCl2 at 37°C degrees for 10′ and stopped by adding EDTA 50 mM pH 8. Products were separated on a native 7% PAGE […] at 5 W in TBE buffer with 0.1% SDS at 4°C for 2 hours for RNA substrates, 4 hours for DNA substrates. Substrates and products were quantified by laser scanning densitometry (Thyphoon-TRIO, GE Healthcare). For trap-assays, the enzyme and the RNA substrate were incubated on ice for 4 min, in the absence of ATP. Reactions were started by addition of ATP and a 50-fold molar excess (1 µM) of r(A)40 trap RNA oligonucleotide, followed by incubation at 37°C for the indicated times.

Series [3] is described as follows: ATPase time-course (burst kinetics). As for the experimental part: (§2) The ATPase activity was determined, as previously described, by directly monitoring [γ-^32P] ATP hydrolysis by thin-layer chromatography (TLC). ATP (3000 Ci/mmol) as tracer, plus 1 mM of cold ATP, unless otherwise stated, and nucleic acids as indicated. Samples were incubated for 5 minutes at 25°C and dotted onto TLC sheets of polyethylenimine cellulose. The products were separated by ascending chromatography with 0.5 M KH2PO4 (pH 3.4). The intensities of the radioactive bands corresponding to ATP and Pi were quantified by densitometric scanning with PhosphoImager. For the stimulation of the ATPase activity, the ssDNA oligonucleotide oligo(dT)20 or the ssRNA oligonucleotide oligo (rU)20 were used. Time-course experiments were performed under the conditions described above. Samples were taken at different time points and processed as described above.
Variation of the ATPase reaction as a function of time was fitted to the mixed-exponential equation: [drawing 3] (3) where [P] is the concentration of products (pmols) at any given time point, t is time, Aburst is the burst amplitude, k burst is the rate of the exponential phase, k ss is the rate of the steady-state linear phase.

Series [4] can be described thus: ATPase activity assay ([γ-32P]ATP hydrolysis, TLC), steady-state kinetics. The settings on record: for Intrinsic ability to hydrolyze ATP: absence of nucleic acid; for Stimulation of ATPase activity by nucleic acids: presence of both NA (RNA, DNA). As for the experimental part: as §2
ATPase reactions were performed as described, in the presence of increasing amounts of nucleic acids and variable ATP concentrations. […] The relative -fold increase in the ATPase velocities 1−(vDNA/v) as a function of the nucleic acid concentrations was fitted to the hyperbolic relationship: [drawing 2] (2) where vNA is the apparent velocity of the reaction in the presence of nucleic acid, v is the velocity in its absence, KD is the apparent affinity for the nucleic acid and [NA] is the concentration of the nucleic acid substrate. The symbol KD is used, instead of Km, solely to reflect the fact that the NA is not a reactant (i.e. it is not converted into products) but only a cofactor of the reaction, without implying any assumption on the nature of the microscopic rates contributing to the KD value itself.

[5] abbreviates: relative to absence of nucleic acid.

B1: N-DDX3: DDX3 mutant lacking the C-terminus (Δ428–662), aa 1–427, entire subdomain 1 plus linker (protein, UniProt O00571 1-427, looked up, fragment)
chain: MSHVAVENALGLDQQFAGLDLNSSDNQSGGSTASKGRYIPPHLRNREATKGFYDKDSSGWSSSKDKDAYSSFGSRSDSRGKSSFFSDRGSGSRGRFDDRGRSDYDGIGSRGDRSGFGKFERGGNSRWCDKSDEDDWSKPLPPSERLEQELFSGGNTGINFEKYDDIPVEATGNNCPPHIESFSDVEMGEIIMGNIELTRYTRPTPVQKHAIPIIKEKRDLMACAQTGSGKTAAFLLPILSQIYSDGPGEALRAMKENGRYGRRKQYPISLVLAPTRELAVQIYEEARKFSYRSRVRPCVVYGGADIGQQIRDLERGCHLLVATPGRLVDMMERGKIGLDFCKYLVLDEADRMLDMGFEPQIRRIVEQDTMPPKGVRHTMMFSATFPKEIQMLARDFLDEYIFLAVGRVGSTSENITQKVVWVEESDK
With B1, in series [1], the RNA helicase activity entry is given as “did not show helicase activity”. The DNA helicase activity entry in series [2] is “inactive”. For the same molecule, the Aburst came to 0.12 ± 0.01 µM in series [3] (+DNA, oligo(dT)20); 0.13 ± 0.01 µM in series [3] (+RNA, oligo(rU)20); 0.12 ± 0.02 µM in series [3] (absence of nucleic acids). Moreover, the k burst in series [3] (+DNA, oligo(dT)20) was 0.5 ± 0.5 min⁻¹; in series [3] (+RNA, oligo(rU)20) it was 0.5 ± 0.5 min⁻¹; in series [3] (absence of nucleic acids), 1 ± 0.5 min⁻¹. The k ss in series [3] (+DNA, oligo(dT)20) was 0.33 ± 0.05 min⁻¹; in series [3] (+RNA, oligo(rU)20), 0.35 ± 0.06 min⁻¹; in series [3] (absence of nucleic acids), 0.4 ± 0.05 min⁻¹. The k cat was found to be 0.0183 ± 0.0083 s⁻¹ in series [4] (+DNA, oligo(dT)20); 0.0163 ± 0.0005 s⁻¹ in series [4] (+RNA, oligo(rU)20); 0.013 ± 0.005 s⁻¹ in series [4] (absence of nucleic acids). The “Intrinsic ability to hydrolyze ATP” value in series [4] was “low but detectable ATPase activity”. Further, in series [4], the “Stimulation of ATPase activity by nucleic acids” value is “no stimulation”.

B2: DDX1: full length human DEAD-box protein DDX1, recombinant, largest known insertion between motifs I and Ia (protein, UniProt Q92499 1-740, looked up)
chain: MAAFSEMGVMPEIAQAVEEMDWLLPTDIQAESIPLILGGGDVLMAAETGSGKTGAFSIPVIQIVYETLKDQQEGKKGKTTIKTGASVLNKWQMNPYDRGSAFAIGSDGLCCQSREVKEWHGCRATKGLMKGKHYYEVSCHDQGLCRVGWSTMQASLDLGTDKFGFGFGGTGKKSHNKQFDNYGEEFTMHDTIGCYLDIDKGHVKFSKNGKDLGLAFEIPPHMKNQALFPACVLKNAELKFNFGEEEFKFPPKDGFVALSKAPDGYIVKSQHSGNAQVTQTKFLPNAPKALIVEPSRELAEQTLNNIKQFKKYIDNPKLRELLIIGGVAARDQLSVLENGVDIVVGTPGRLDDLVSTGKLNLSQVRFLVLDEADGLLSQGYSDFINRMHNQIPQVTSDGKRLQVIVCSATLHSFDVKKLSEKIMHFPTWVDLKGEDSVPDTVHHVVVPVNPKTDRLWERLGKSHIRTDDVHAKDNTRPGANSPEMWSEAIKILKGEYAVRAIKEHKMDQAIIFCRTKIDCDNLEQYFIQQGGGPDKKGHQFSCVCLHGDRKPHERKQNLERFKKGDVRFLICTDVAARGIDIHGVPYVINVTLPDEKQNYVHRIGRVGRAERMGLAISLVATEKEKVWYHVCSSRGKGCYNTRLKEDGGCTIWYNEMQLLSEIEEHLNCTISQVEPDIKVPVDEFDGKVTYGQKRAAGGGSYKGHVDILAPTVQELAALEKEAQTSFLHLGYLPNQLFRTF
modifications: full-length
notes: full length human DEAD-box protein DDX1, recombinant, largest known insertion between motifs I and Ia
B2: the DNA unwinding result in series [2] (DNA duplex with both 5′- and 3′-protruding ssDNA ends, 18/[5′-3′]-38 mer) was “did not display DNA unwinding capability”. For the same molecule, the k cat in series [4] (+DNA, oligo(dT)20) came to 0.035 ± 0.005 s⁻¹; in series [4] (+RNA, oligo(rU)20), 0.0633 ± 0.0083 s⁻¹; in series [4] (absence of nucleic acids), 0.0317 ± 0.005 s⁻¹. Moreover, the “Increase of catalytic efficiency (kcat/Km) by DNA” value in series [4] (setting [5]) came out at 1.3 fold. Moreover, the “Increase of catalytic efficiency (kcat/Km) by RNA” value in series [4] (setting [5]) turned out to be 2.6 fold.

B3: I-DDX3: double deletion DDX3 mutant (Δ1–159/Δ428–662), aa 160–427, helicase core of subdomain 1 (protein, UniProt O00571 160-427, looked up, fragment)
chain: FEKYDDIPVEATGNNCPPHIESFSDVEMGEIIMGNIELTRYTRPTPVQKHAIPIIKEKRDLMACAQTGSGKTAAFLLPILSQIYSDGPGEALRAMKENGRYGRRKQYPISLVLAPTRELAVQIYEEARKFSYRSRVRPCVVYGGADIGQQIRDLERGCHLLVATPGRLVDMMERGKIGLDFCKYLVLDEADRMLDMGFEPQIRRIVEQDTMPPKGVRHTMMFSATFPKEIQMLARDFLDEYIFLAVGRVGSTSENITQKVVWVEESDK
Consider B3, for which the RNA helicase activity result in series [1] was “did not show helicase activity”. Moreover, the DNA helicase activity result in series [2] was “inactive”. For the same molecule, the Aburst in series [3] (+DNA, oligo(dT)20) was 0.15 ± 0.02 µM; in series [3] (+RNA, oligo(rU)20) it was 0.11 ± 0.03 µM; in series [3] (absence of nucleic acids) it was 0.12 ± 0.02 µM. Further, the k burst came to 0.4 ± 0.6 min⁻¹ in series [3] (+DNA, oligo(dT)20); 0.4 ± 0.5 min⁻¹ in series [3] (+RNA, oligo(rU)20); 0.3 ± 0.4 min⁻¹ in series [3] (absence of nucleic acids). The k ss in series [3] (+DNA, oligo(dT)20) is 0.3 ± 0.05 min⁻¹; in series [3] (+RNA, oligo(rU)20) it was 0.4 ± 0.04 min⁻¹; in series [3] (absence of nucleic acids), 0.3 ± 0.05 min⁻¹. Moreover, the k cat in series [4] (+DNA, oligo(dT)20) was 0.0233 ± 0.0067 s⁻¹; in series [4] (+RNA, oligo(rU)20) it was 0.0267 ± 0.0083 s⁻¹; in series [4] (absence of nucleic acids) it was 0.0183 ± 0.0033 s⁻¹. Also, in series [4], the “Intrinsic ability to hydrolyze ATP” value is “low but detectable ATPase activity”. Also, in series [4], the “Stimulation of ATPase activity by nucleic acids” value is given as “no stimulation”.
